Experiments:
[1] = biological target: T1, Cynomolgus monkey PD-1-His protein (AcroBiosystems, # PD1-05223) (cynomolgus monkey, UniProt B0LAJ3 25-170); assay: ELISA, plate-coated cynomolgus monkey PD-1-His
T1 construct: Bought reagent, coated on the ELISA plate; also called cynomolgus monkey PD-1 protein
Experimental: Cynomolgus monkey PD-1-His protein (AcroBiosystems, # PD1-05223) was diluted to 2 μg/mL with PBS, added to a 96-well plate (Corning, #9018) at 100 μL/well, and incubated at 4° C. overnight. After the liquid was discarded, the plate was washed 3 times with PBST, blocked by adding 250 μL of 2% BSA, and incubated at room temperature for 1 h. The blocking buffer was discarded, and the plate was washed 3 times with PBST buffer (pH 7.4, containing 0.05% Tween-20). The test antigen-binding protein was diluted to 5 μg/mL, and added at 100 μL/well. The plate was incubated at 37° C. for 1 h. After the plate was washed 3 times with PBST buffer (pH 7.4, containing 0.05% Tween-20), a 4000-fold diluted goat anti-human HRP secondary antibody (Invitrogen, #A18805) was added. The plate was incubated at 37° C. for 1 h. After the plate was washed, TMB (Biopanda, # TMB-S-003) was added at 100 μL/well. The plate was left away from light at room temperature for 5 min. The reactions were terminated by adding 50 μL of stop buffer (BBI life sciences, #E661006-0200) to each well, and the absorbance values at 450 nm (OD450) were measured using a microplate reader (PerkinElemer, #Enspire).

[2] = biological target: T2, Human PD-1 expressed on CHO-K1 cells (CHO-K1/hPD-1) (human, UniProt Q15116 25-288); assay: FACS, CHO-K1/hPD-1 cells
T2 construct: whole, on cells; also called CHO-K1 cells overexpressing human PD-1
T2 sequence (Q15116 25-288): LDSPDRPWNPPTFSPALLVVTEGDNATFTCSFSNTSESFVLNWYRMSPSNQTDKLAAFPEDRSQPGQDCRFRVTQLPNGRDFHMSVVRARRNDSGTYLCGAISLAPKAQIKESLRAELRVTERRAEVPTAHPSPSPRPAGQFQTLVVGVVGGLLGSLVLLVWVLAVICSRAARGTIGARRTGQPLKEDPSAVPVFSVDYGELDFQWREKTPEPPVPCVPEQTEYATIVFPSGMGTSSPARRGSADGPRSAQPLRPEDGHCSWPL
Experimental: (§1) In order to investigate the in vitro binding activity of the PD-1 antigen-binding proteins to human/cynomolgus monkey PD-1, the binding assay at the cellular level was performed using a CHO-K1 cell strain overexpressing human or cynomolgus monkey PD-1 (CHO-K1/hPD-1 or CHO-K1/cyno PD-1, from GenScript). Briefly, the CHO-K1-hPD-1 cells were digested and resuspended in an F-12K complete medium, and the cell density was adjusted to 1×10⁶ cells/mL. The cells were seeded in a 96-well V-bottom plate (Corning, Cat#3894) at 100 μL/well, followed by the addition of the test antigen-binding proteins with concentrations 2-fold of final concentrations obtained by 5-fold gradient dilution were each added at 100 μL/well. The mixtures were well mixed. The maximum final concentration of the antigen-binding proteins was 100 nM or 300 nM. A total of 8-11 concentrations were set. hIgG was used as a control. The cells were incubated at 4° C. for 1 h away from light. Thereafter, the cells in each well were rinsed twice with 100 μL of pre-cooled PBS, and centrifuged at 500 g at 4° C. for 5 min, and then the supernatant was discarded. Then 100 μL of a fluorescent secondary antibody (goat anti-human IgG (H+L) secondary antibody, Alexa Fluor® 488 conjugate, Invitrogen, Cat #A11013, 1:1000) was added to each well. The plate was incubated away from light at 4° C. for 30 min. The cells in each well were rinsed twice with 200 μL of pre-cooled PBS, and centrifuged at 500 g at 4° C. for 5 min, and then the supernatant was discarded. Finally, the cells in each well were resuspended in 200 μL of pre-cooled PBS, and the fluorescence signal values were read using a BD FACS CANTOII.

[3] = biological target: T2, Human PD-1 expressed on CHO-K1 cells …; assay: FACS blocking of biotin-labeled human PD-L1 binding to CHO-K1-hPD-1 cells
Experimental: Briefly, the CHO-K1-hPD-1 cells were digested and resuspended in an F-12K complete medium, and the cell density was adjusted to 1×10⁶ cells/mL. The cells were seeded in a 96-well V-bottom plate (Corning, Cat#3894) at 100 μL/well, followed by the addition of the test antigen-binding proteins with concentrations 2-fold of final concentrations obtained by 3-fold or 5-fold gradient dilution were each added at 100 μL/well. The mixtures were well mixed. The maximum final concentration of the antigen-binding proteins was 100 nM or 300 nM. A total of 8 concentrations were set. hIgG was used as a control. The cells were incubated at 4° C. for 1 h away from light. […] The cells were incubated at 4° C. away from light for 30 min. The cells in each well were rinsed twice with 100 μL of pre-cooled PBS, and centrifuged at 500 g at 4° C. for 5 min, and then the supernatant was discarded. A fluorescent secondary antibody (PE Streptavidin, BD, Cat# 554061, 1:200) was added at 100 μL/well, and the cells were incubated at 4° C. away from light for 30 min. The cells in each well were rinsed twice with 200 μL of pre-cooled PBS, and centrifuged at 500 g at 4° C. for 5 min, and then the supernatant was discarded. Finally, the cells in each well were resuspended in 200 μL of pre-cooled PBS, the fluorescence signal values were read using a BD FACS CANTOII, and the IC₅₀ values were calculated.

[4] = biological target: T3, Human PD-1-His protein (ACROBiosystems, # PD1-H5221) (human, UniProt Q15116 25-167); assay: ELISA, plate-coated human PD-1-His
T3 construct: Bought reagent, coated on the ELISA plate; also called human PD-1 protein; human PD-1 antigen; not shown: His tag
T3 sequence (Q15116 25-167 limits assumed): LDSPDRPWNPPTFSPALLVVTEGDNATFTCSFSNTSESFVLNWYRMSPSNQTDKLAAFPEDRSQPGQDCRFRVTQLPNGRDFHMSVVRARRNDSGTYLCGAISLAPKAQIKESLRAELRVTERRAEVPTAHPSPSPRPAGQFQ
Experimental: Human PD-1-His protein (ACROBiosystems, # PD1-H5221) was diluted to 2 μg/mL with PBS, added to a 96-well plate (Corning, cat#9018) at 100 μL/well, and incubated at 4° C. overnight. After the liquid was discarded, the plate was washed 3 times with PBST buffer (pH 7.4, containing 0.05% Tween-20), and 250 μL of 2% BSA blocking buffer was added. The plate was incubated at 37° C. for 1 h. The blocking buffer was discarded, and the plate was washed 3 times with PBST buffer (pH 7.4, containing 0.05% Tween-20). The test antigen-binding protein was 5-fold diluted in sequence at an initial concentration of 100 nM for a total of 8-10 concentration gradients, and added at 100 μL/well. The plate was incubated at 37° C. for 1 h. An isotype antibody was taken as a control. After the plate was washed 3 times with PBST buffer (pH 7.4, containing 0.05% Tween-20), a 4000-fold diluted goat anti-human HRP secondary antibody (Invitrogen, #A18805) was added. The plate was incubated away from light at 37° C. for 1 h. After the plate was washed 3 times with PBST buffer (pH 7.4, containing 0.05% Tween-20), TMB (Biopanda, # TMB-S-003) was added at 100 μL/well. The plate was left away from light at room temperature for about 5 min. The reactions were terminated by adding 50 μL of stop buffer (BBI life sciences, #E661006-0200) to each well, and the absorbance values at 450 nm (OD450) were measured using a microplate reader (PerkinElemer, #Enspire). The half maximal effective concentration (EC₅₀) was calculated from the measurement results.

[5] = biological target: T4, Cynomolgus monkey PD-1 expressed on CHO-K1 cells (CHO-K1/cyno PD-1) (cynomolgus monkey, UniProt B0LAJ3 25-288); assay: FACS, CHO-K1/cyno PD-1 cells
T4 construct: also called CHO-K1 cells overexpressing cynomolgus monkey PD-1
T4 sequence (B0LAJ3 entry or part of it limits assumed): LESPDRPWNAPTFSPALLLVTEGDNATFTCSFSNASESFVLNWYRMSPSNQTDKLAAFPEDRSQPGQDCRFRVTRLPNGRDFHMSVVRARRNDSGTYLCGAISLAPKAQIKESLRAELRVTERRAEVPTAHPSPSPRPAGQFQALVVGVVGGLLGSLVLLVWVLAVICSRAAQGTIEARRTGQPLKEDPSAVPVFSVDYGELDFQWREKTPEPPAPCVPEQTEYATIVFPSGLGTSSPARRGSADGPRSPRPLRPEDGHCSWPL
Experimental: as §1

[6] = biological target: T5, Human CD73 expressed on CHO-K1 cells (CHO-K1-hCD73) (human, UniProt P21589 27-549); assay: FACS, CHO-K1-hCD73 cells
T5 construct: whole, on cells
T5 sequence (looked up): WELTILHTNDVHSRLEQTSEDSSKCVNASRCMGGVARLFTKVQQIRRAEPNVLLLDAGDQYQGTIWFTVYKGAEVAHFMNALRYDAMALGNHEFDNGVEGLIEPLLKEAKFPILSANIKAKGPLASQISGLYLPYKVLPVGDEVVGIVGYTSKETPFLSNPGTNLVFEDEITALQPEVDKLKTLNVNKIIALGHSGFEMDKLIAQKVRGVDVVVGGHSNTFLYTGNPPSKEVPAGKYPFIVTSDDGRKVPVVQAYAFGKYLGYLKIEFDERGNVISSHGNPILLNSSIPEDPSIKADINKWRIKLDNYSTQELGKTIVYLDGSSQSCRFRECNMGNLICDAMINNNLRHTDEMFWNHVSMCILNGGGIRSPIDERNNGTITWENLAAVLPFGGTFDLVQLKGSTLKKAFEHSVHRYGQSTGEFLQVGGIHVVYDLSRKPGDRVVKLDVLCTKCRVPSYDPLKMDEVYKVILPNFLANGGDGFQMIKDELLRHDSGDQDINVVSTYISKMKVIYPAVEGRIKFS
Experimental: In order to investigate the binding activity of the CD73×PD-1 bispecific antibody to human CD73 and PD-1, the binding assay at the cellular level was performed using a CHO-K1 cell strain overexpressing human CD73 or PD-1 (CHO-K1-hCD73 or CHO-K1-hPD-1). Briefly, the CHO-K1-hCD73 and CHO-K1-hPD-1 cells were digested and resuspended in an F-12K complete medium, and the cell density was adjusted to 1×10⁶ cells/mL. The cells were seeded in a 96-well V-bottom plate (Corning, #3894) at 100 μL/well, followed by the addition at 100 μL/well and centrifugation at 500 g at 4° C. for 5 min, and then the supernatant was discarded. Antibodies were 3-fold diluted to a maximum final concentration of 50 nM, and a total of 8 concentrations were set. 100 μL of the diluted antibodies was added to each well, and the cells were incubated at 4° C. for 1 h away from light. Thereafter, the cells in each well were rinsed twice with 100 μL of pre-cooled PBS, and centrifuged at 500 g at 4° C. for 5 min, and then the supernatant was discarded. Then 100 μL of a fluorescent secondary antibody (goat anti-human IgG (H+L) secondary antibody, Alexa Fluor® 488 conjugate, Invitrogen, Cat #A11013, 1:1000) was added to each well. […] Finally, the cells in each well were resuspended in 200 μL of pre-cooled PBS, and the fluorescence signal values were read using a BD FACS CANTOII.

T1 sequence (B0LAJ3 entry or part of it limits assumed): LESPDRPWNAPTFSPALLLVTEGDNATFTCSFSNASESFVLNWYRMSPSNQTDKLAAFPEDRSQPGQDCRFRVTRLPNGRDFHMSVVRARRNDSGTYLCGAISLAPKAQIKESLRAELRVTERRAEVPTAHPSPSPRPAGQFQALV

B1: PR002479 (antibody, human IgG1, V domains shown)
VH: EVQLVETGGGLIQPGGSLRLSCAASGFNVSSHYMSWVRQAPGKGLEWVSIIHSGGSTYYADSVKGRFTISRDNSKNRLYLQMNSLRAEDTAVYYCARATAVAEENGYNYPFNYWGQGTLVTVSS
notes: Heavy-chain-only antibody (HCAb), human IgG1 Fc; two heavy chains, no light chain; also called R4004P551D6
[1]
  EC50: 0.252 nM
  OD Maximum: 2.88
[2]
  EC50: 17 nM
  MFI Maximum: 1.05e+06
[3]
  IC50: 16.2 nM
  Maximum inhibition rate (%): 96.2%
[4]
  EC50: 0.152 nM
  OD Maximum: 2.85

B2: PR000150 (pembrolizumab analog) (antibody, human IgG4 S228P, kappa, V domains shown)
VH: QVQLVQSGVEVKKPGASVKVSCKASGYTFTNYYMYWVRQAPGQGLEWMGGINPSNGGTNFNEKFKNRVTLTTDSSTTTAYMELKSLQFDDTAVYYCARRDYRFDMGFDYWGQGTTVTVSS
VL: EIVLTQSPATLSLSPGERATLSCRASKGVSTSGYSYLHWYQQKPGQAPRLLIYLASYLESGVPARFSGSGSGTDFTLTISSLEPEDFAVYYCQHSRDLPLTFGGGTKVEIKR
notes: Anti-PD-1 positive control; also called positive control antibody pembrolizumab
[1]
  EC50: 0.039 nM
  OD Maximum: 2.86
[5]
  EC50: 0.998 nM
  MFI Maximum: 19100

B3: PR000846 (antibody, human IgG1, kappa, L234A L235A, V domains shown)
VH: QVQLVESGGGVAQPGRSLSLSCAASGFTFSDYGMHWVRQAPGKGLEWVALIWYDASFEYYADSVKGRFSISRDNSKNTLYLQMNSLRAEDTAVYYCVRDAQWGSRLDYWGQGTLVTVSS
VL: KIVMTQSPATLSLSPGERATLSCRASQSVSRYLAWYQQKPGQAPRLLIYDASNRATGIPARFSGSGSGTDFTLTISSLEPEDFAVYYCQQRSNWIFTFGPGTKVDIKR
notes: Parent monoclonal antibody of the CD73 end of PR003568; also called anti-CD73 IgG monoclonal antibody PR000846; anti-CD73 H2L2 antibody PR000846
[6]
  EC50: 1.45 nM

From US20240034792A1 (HARBOUR BIOMED SHANGHAI, published 2024)
